Laboratory results reported in PMC12713088, “Arabidopsis TRB Proteins Form Two Closely Related Complexes to Mediate H3K4me3 Demethylation and Transcriptional Repression” (Advanced Science, 2025).

Experiments:
TRB1;NAC050-N = molecular target: T1, TRB1;NAC050-N (Arabidopsis thaliana;Arabidopsis …, UniProt Q8VWK4;Q9SQX9 1-300;1-184, |); experiment: EMSA; TRB1 added to NAC050-N; larger complex; EMSA: 10 mM Tris-HCl pH 7.5, 50 mM NaCl, 1 mM EDTA, 5% glycerol, 1 mM DTT, 25 C, 30 min, 20 ng DNA + 1 ug protein; ITC: 20 mM Tris-HCl pH 7.5, 150 mM NaCl, 25 C, 5 uM protein, 100 uM DNA; conditions: protein: recombinant;recombinant; tags: His;MBP; label: Cy5 at 5' of strand 1; blunt
T1 sequence 1: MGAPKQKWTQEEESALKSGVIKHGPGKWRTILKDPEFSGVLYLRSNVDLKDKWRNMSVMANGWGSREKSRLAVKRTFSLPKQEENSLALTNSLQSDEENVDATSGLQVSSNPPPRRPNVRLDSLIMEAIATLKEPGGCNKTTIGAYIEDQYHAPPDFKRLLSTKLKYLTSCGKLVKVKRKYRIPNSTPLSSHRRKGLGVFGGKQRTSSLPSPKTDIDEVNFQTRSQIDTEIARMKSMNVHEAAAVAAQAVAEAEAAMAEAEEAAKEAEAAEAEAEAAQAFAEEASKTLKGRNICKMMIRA
T1 sequence 2: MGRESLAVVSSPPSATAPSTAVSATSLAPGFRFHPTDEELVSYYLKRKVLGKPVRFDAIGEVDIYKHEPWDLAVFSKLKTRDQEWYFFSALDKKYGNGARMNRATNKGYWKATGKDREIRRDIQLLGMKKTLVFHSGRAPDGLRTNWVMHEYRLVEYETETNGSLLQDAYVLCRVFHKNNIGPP

NAC050-N = molecular target: T2, NAC050-N (Arabidopsis thaliana, UniProt Q9SQX9 1-184); experiment: EMSA; EMSA: 10 mM Tris-HCl pH 7.5, 50 mM NaCl, 1 mM EDTA, 5% glycerol, 1 mM DTT, 25 C, 30 min, 20 ng DNA + 1 ug protein; ITC: 20 mM Tris-HCl pH 7.5, 150 mM NaCl, 25 C, 5 uM protein, 100 uM DNA; conditions: protein: recombinant; tags: MBP; chain copies: 2; label: Cy5 at 5' of strand 1; blunt
T2 sequence: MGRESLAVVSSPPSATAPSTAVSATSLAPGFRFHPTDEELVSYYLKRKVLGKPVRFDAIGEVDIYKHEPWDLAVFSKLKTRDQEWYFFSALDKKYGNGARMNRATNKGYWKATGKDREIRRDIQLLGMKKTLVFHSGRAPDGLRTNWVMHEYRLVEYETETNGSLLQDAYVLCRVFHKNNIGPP

B1: Probe 2 (P2) (dsDNA)
DNA 1: GACGCTTGAGCCTCAAGAAAT
DNA 2: ATTTCTTGAGGCTCAAGCGTC
- binding result (TRB1;NAC050-N): binds
- binding result (NAC050-N): binds
